Patent US20230174640A1 (VITAERIS, published 2023)

Biological target: T1, cynomolgus monkey IL-6 (cynomolgus monkey, UniProt P79341 28-212, limits assumed)
T1 sequence (looked up): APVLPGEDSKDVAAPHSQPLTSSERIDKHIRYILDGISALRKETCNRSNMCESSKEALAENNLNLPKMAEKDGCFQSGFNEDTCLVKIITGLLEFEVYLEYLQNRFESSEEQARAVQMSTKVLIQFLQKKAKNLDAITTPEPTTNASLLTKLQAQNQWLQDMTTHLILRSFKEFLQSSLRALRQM
Assay: tissue cross-reactivity study, cynomolgus monkey tissues

binding result: binds
B1: clazakizumab (antibody, human IgG1, kappa, N297A, V domains shown)
VH: EVQLVESGGGLVQPGGSLRLSCAASGFSLSNYYVTWVRQAPGKGLEWVGIIYGSDETAYATSAIGRFTISRDNSKNTLYLQMNSLRAEDTAVYYCARDDSSDWDAKFNLWGQGTLVTVSS
VL: AIQMTQSPSSLSASVGDRVTITCQASQSINNELSWYQQKPGKAPKLLIYRASTLASGVPSRFSGSGSGTDFTLTISSLQPDDFATYYCQQGYSLRNIDNAFGGGTKVEIKR
notes: Humanized IgG1 monoclonal antibody; also called anti-IL-6 mAb clazakizumab
